According to article PMC3408419 (Molecular Biology of the Cell, 2012):
Several values for one entry are separate records, joined by “and”; a condition that tells them apart may be missing. Equal values may be shown once.

Columns and labels:
[1] = target: MBP-Sec16-mOrange (S. cerevisiae) (UniProt P48415); assay: single-molecule photobleaching
Sec23/24 complex = Sec23/24 complex (S. cerevisiae, UniProt P15303;P40482); assay: liposome flotation
Sec23/24 complex, sequence (P15303 whole entry, chain 1 of 2): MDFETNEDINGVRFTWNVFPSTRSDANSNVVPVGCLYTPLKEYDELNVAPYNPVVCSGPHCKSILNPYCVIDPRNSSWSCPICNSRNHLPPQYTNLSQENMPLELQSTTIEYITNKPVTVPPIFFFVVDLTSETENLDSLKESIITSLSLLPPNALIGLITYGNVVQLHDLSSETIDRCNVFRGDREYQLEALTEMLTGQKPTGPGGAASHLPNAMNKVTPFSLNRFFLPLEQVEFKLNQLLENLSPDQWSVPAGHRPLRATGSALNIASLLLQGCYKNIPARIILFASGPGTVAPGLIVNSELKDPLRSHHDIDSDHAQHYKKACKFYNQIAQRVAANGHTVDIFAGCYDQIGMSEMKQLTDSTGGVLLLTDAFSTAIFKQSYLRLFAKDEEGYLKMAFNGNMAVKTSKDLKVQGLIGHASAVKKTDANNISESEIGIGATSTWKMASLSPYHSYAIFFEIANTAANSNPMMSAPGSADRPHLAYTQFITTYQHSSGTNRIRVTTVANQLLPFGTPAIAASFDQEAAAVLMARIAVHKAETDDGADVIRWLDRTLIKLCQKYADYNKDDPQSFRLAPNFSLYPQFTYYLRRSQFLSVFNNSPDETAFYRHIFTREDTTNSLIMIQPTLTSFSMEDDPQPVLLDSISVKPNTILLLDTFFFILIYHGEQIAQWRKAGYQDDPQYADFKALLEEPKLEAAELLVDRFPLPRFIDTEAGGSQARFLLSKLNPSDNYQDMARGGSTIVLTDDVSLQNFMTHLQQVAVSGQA
Sec23/24 complex, sequence (P40482 whole entry, chain 2 of 2): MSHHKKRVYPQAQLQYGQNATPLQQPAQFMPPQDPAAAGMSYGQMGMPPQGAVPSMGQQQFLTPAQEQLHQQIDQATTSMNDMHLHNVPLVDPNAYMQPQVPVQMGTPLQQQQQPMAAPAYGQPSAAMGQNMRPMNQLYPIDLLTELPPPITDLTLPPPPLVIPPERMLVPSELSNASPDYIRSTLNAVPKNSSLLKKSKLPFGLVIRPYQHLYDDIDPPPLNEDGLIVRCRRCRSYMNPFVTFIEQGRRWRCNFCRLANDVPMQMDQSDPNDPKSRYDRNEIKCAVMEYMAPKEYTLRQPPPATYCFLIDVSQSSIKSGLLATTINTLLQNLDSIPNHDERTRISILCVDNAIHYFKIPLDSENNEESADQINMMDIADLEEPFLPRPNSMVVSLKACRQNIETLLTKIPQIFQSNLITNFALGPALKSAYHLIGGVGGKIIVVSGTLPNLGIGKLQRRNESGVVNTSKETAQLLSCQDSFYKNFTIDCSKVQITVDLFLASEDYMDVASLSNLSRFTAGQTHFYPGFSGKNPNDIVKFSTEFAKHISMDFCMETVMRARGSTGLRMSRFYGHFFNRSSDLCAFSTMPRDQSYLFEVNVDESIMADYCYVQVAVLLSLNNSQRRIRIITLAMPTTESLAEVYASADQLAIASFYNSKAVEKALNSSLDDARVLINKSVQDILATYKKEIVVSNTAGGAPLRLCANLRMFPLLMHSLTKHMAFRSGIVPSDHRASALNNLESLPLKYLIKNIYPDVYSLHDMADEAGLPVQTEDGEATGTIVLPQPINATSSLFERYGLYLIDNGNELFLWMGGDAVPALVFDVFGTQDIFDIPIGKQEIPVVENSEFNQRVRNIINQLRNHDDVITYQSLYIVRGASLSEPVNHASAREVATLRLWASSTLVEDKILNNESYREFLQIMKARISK

Molecule: MBP-Sec16-mOrange, P48415 1-2195
- stoichiometry N [1]: 4 and 6

B1: Sec13/31 complex (complex)
chain 1: MVVIANAHNELIHDAVLDYYGKRLATCSSDKTIKIFEVEGETHKLIDTLTGHEGPVWRVDWAHPKFGTILASCSYDGKVLIWKEENGRWSQIAVHAVHSASVNSVQWAPHEYGPLLLVASSDGKVSVVEFKENGTTSPIIIDAHAIGVNSASWAPATIEEDGEHNGTKESRKFVTGGADNLVKIWKYNSDAQTYVLESTLEGHSDWVRDVAWSPTVLLRSYLASVSQDRTCIIWTQDNEQGPWKKTLLKEEKFPDVLWRASWSLSGNVLALSGGDNKVTLWKENLEGKWEPAGEVHQ
chain 2: MVKLAEFSRTATFAWSHDKIPLLVSGTVSGTVDANFSTDSSLELWSLLAADSEKPIASLQVDSKFNDLDWSHNNKIIAGALDNGSLELYSTNEANNAINSMARFSNHSSSVKTVKFNAKQDNVLASGGNNGEIFIWDMNKCTESPSNYTPLTPGQSMSSVDEVISLAWNQSLAHVFASAGSSNFASIWDLKAKKEVIHLSYTSPNSGIKQQLSVVEWHPKNSTRVATATGSDNDPSILIWDLRNANTPLQTLNQGHQKGILSLDWCHQDEHLLLSSGRDNTVLLWNPESAEQLSQFPARGNWCFKTKFAPEAPDLFACASFDNKIEVQTLQNLTNTLDEQETETKQQESETDFWNNVSREESKEKPTVFHLQAPTWYGEPSPAAHWAFGGKLVQITPDGKGVSITNPKISGLESNTTLSEALKTKDFKPLINQRLVKVIDDVNEEDWNLLEKLSMDGTEEFLKEALAFDNDESDAQDDANNEKEDDGEEFFQQIETNFQPEGDFSLSGNIEQTISKNLVSGNIKSAVKNSLENDLLMEAMVIALDSNNERLKESVKNAYFAKYGSKSSLSRILYSISKREVDDLVENLDVSQWKFISKAIQNLYPNDIAQRNEMLIKLGDRLKENGHRQDSLTLYLAAGSLDKVASIWLSEFPDLEDKLKKDNKTIYEAHSECLTEFIERFTVFSNFINGSSTINNEQLIAKFLEFINLTTSTGNFELATEFLNSLPSDNEEVKTEKARVLIASGKSLPAQNPATATTSKAKYTNAKTNKNVPVLPTPGMPSTTSIPSMQAPFYGMTPGASANALPPKPYVPATTTSAPVHTEGKYAPPSQPSMASPFVNKTNSSTRLNSFAPPPNPYATATVPATNVSTTSIPQNTFAPIQPGMPIMGDYNAQSSSIPSQPPINAVSGQTPHLNRKANDGWNDLPLKVKEKPSRAKAVSVAPPNILSTPTPLNGIPANAASTMPPPPLSRAPSSVSMVSPPPLHKNSRVPSLVATSESPRASISNPYAPPQSSQQFPIGTISTANQTSNTAQVASSNPYAPPPQQRVATPLSGGVPPAPLPKASNPYAPTATTQPNGSSYPPTGPYTNNHTMTSPPPVFNKPPTGPPPISMKKRSNKLASIEQNPSQGATYPPTLSSSASPLQPSQPPTLASQVNTSAENVSHEIPADQQPIVDFLKEELARVTPLTPKEYSKQLKDCDKRLKILFYHLEKQDLLTQPTIDCLHDLVALMKEKKYKEAMVIHANIATNHAQEGGNWLTGVKRLIGIAEATLN
- binding result (Sec23/24 complex): binds
